Test results published in publication PMC12639696, “Death-associated protein kinase 1-dependent SENP1 degradation increases tau SUMOylation and leads to cognitive dysfunction in a mouse model for tauopathy” (Molecular Neurodegeneration, 2025).

Molecular target: T1, His-DAPK1 (848–1288 aa) (UniProt P53355 848-1288)
T1 construct: source: purified recombinant protein
T1 sequence (looked up): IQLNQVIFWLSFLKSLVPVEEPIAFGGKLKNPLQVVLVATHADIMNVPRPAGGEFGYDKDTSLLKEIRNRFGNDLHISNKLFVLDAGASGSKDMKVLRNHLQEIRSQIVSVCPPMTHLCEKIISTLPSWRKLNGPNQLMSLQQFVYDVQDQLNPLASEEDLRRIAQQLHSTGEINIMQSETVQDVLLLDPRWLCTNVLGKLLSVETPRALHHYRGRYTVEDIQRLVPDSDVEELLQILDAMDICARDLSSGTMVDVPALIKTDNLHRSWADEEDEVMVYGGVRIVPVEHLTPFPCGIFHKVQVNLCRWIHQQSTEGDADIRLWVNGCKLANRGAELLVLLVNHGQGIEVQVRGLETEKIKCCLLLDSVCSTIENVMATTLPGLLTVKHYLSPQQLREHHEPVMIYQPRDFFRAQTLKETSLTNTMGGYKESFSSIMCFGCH
Experiment: pull-down; purified His-DAPK1 (848–1288 aa) incubated with GST or GST-SENP1 proteins; immunoblot with an anti-His antibody
Conditions: both partners purified

B1: GST-SENP1 (1-200 aa) (domain or fragment, UniProt Q9P0U3 1-200, looked up)
chain: MDDIADRMRMDAGEVTLVNHNSVFKTHLLPQTGFPEDQLSLSDQQILSSRQGHLDRSFTCSTRSAAYNPSYYSDNPSSDSFLGSGDLRTFGQSANGQWRNSTPSSSSSLQKSRNSRSLYLETRKTSSGLSNSFAGKSNHHCHVSAYEKSFPIKPVPSPSWSGSCRRSLLSPKKTQRRHVSTAEETVQEEEREIYRQLLQM
notes: Sentrin-specific protease 1 (SENP1), N-terminal region, residues 1-200; also called N-terminal region (1-200 aa) of SENP1; source: E. coli, purified GST fusion protein
B1: binds.
